Laboratory results reported in US20030130484A1, “Inhibitors and disassemblers of fibrillogenesis” (priority 2001, published 2003).
Read-outs that look alike come from different tables or passages of the source.

B1: Aβ16-22m (peptide)
peptide: KLVFFAE
modifications: not checked
B2: Aβ16-22mR (peptide)
peptide: ELVFFAK
modifications: not checked
B3: Aβ16-20e (peptide)
peptide: KLVFF
modifications: not checked
B4: Aβ16-20 (peptide)
peptide: KLVFF
modifications: not checked
B5: Aβ16-20m (peptide)
peptide: KLVFF
modifications: not checked

What was measured:
[1] = biological target: human Aβ1-40 peptide (human); test: cell-based or functional assay
Aβ16-22m = test: size exclusion chromatography, self-association
[2] = biological target: human Aβ1-40 peptide (human); test: cell-based or functional assay; remark: listed apart in the source

| Binder | IC50 of inhibition of fibrillogenesis (thioflavin fluorescence) (inhibitor:Aβ40 ratio) [1] | Inhibition of Fibrillogenesis IC50 (thioflavin fluorescence) (inhibitor:Aβ40 molar ratio) [1] | Inhibition of Fibrillogenesis ICmax [1] | Inhibition of Fibrilogenesis IC50 (µM) [1] | Inhibition of Fibrilogenesis ICmax (%) [1] | molar excess giving complete elimination of thioflavin fluorescence (fold molar excess) [1] | percent oligomer (% oligomer (at 0.1 mg/ml)) (Aβ16-22m) | percent oligomer (% oligomer (at 6 mg/ml)) (Aβ16-22m) | ratio giving complete elimination of thioflavin fluorescence (inhibitor:Aβ40 ratio) [1] | Inhibition IC50 (thioflavin T assay) (inhibitor:Aβ1-40 ratio) [2] | Inhibition ICmax [2] | Inhibition IC50 (thioflavin T fluorescence) (inhibitor to Aβ40 molar ratio) [1] | Inhibition ICmax [1] |
| --- | --- | --- | --- | --- | --- | --- | --- | --- | --- | --- | --- | --- | --- |
| B1 | 4 | 4.2 | 100% | 4.2 µM | 100% | 30 | 1 to 91 | 1 to 91 | – | – | – | – | – |
| B2 | 9 | 7.8 | 100% | 7.8 µM | 100% | – | – | – | 50 | – | – | – | – |
| B3 | – | – | – | – | – | – | – | – | – | 3.7 | 100% | – | – |
| B4 | – | – | – | – | – | – | – | – | – | 9.7 | 100% | 5.3 | 89% |
| B5 | – | – | – | 0.4 µM | 100% | – | – | – | – | 6.9 | – | 6.5 | 100% |
